Data taken from patent US20030099608A1 (ZymoGenetics, published 2003).

Tests used:
[1] = target: human IL-TIF (T-cell inducible Factor) (human) (UniProt Q9GZX6); assay: cell-based or functional assay
[2] = target: T1, CRF2-4/zcytor11 heterodimeric receptor on BaF3 cells (BaF3/CRF2-4/zcytor11 cells) (human, UniProt Q08334 20-325; Q8N6P7 16-574); assay: cell-based or functional assay
T1 sequence (looked up) 1: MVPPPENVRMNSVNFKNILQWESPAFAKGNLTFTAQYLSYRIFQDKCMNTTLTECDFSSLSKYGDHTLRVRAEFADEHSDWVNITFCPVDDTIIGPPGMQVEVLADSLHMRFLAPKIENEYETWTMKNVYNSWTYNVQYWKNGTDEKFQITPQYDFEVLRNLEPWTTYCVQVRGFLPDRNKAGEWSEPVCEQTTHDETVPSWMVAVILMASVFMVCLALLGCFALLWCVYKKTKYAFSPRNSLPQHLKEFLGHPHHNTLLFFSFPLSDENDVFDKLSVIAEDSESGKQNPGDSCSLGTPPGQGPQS
T1 sequence (looked up) 2: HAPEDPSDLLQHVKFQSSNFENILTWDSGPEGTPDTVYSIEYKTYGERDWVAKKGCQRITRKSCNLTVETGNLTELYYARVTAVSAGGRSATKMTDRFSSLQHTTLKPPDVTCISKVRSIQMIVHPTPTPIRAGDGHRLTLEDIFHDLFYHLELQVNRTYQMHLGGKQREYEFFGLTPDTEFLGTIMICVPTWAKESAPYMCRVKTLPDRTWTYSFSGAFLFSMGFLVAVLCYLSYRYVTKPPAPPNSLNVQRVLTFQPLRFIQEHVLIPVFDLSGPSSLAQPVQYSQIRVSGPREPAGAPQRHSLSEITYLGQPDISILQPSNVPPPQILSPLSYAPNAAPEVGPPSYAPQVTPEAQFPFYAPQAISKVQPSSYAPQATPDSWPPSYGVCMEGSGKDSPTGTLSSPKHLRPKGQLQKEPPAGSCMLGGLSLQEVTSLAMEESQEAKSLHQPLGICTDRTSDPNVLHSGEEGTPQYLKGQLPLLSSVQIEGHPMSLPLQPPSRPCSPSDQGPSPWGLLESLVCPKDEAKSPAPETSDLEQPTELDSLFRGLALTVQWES

secreted hzcytor11/hCRF2-4 heterodimer (CRF2-4/zcytor11-Fc4) (Fc fusion)
concentration of CRF2-4/zcytor11-Fc4 at which inhibition of proliferation induced by 100 pg/ml IL-TIF was barely detectable [1]: 63 ng/mL
concentration of CRF2-4/zcytor11-Fc4 giving complete inhibition of proliferation induced by 100 pg/ml IL-TIF [1]: 8 µg/mL

B1: IL-TIF-CEE (IL-TIF polypeptide with C-terminal Glu-Glu tag) (ligand)
chain: APISSHCRLDKSNFQQPYITNRTFMLAKEASLADNNTDVRLIGEKLFHGVSMSERCYLMKQVLNFTLEEVLFPQSDRFQPYMQEVVPFLARLSNRLSTCHIEGDDLHIQRNVQKLKDTVKKLGESGEIKAIGELDLLFMSLRNACIEYMPME
proliferation of BaF3/CRF2-4/zcytor11 cells (Alamar Blue), fold induction at 0.06 ng/ml IL-TIF-CEE [2]: 2 fold induction
proliferation of BaF3/CRF2-4/zcytor11 cells (Alamar Blue), fold over background at 50 ng/ml IL-TIF-CEE [2]: ~15 fold over background

B2: human IL-TIF (T-cell inducible Factor) (ligand)
chain: APISSHCRLDKSNFQQPYITNRTFMLAKEASLADNNTDVRLIGEKLFHGVSMSERCYLMKQVLNFTLEEVLFPQSDRFQPYMQEVVPFLARLSNRLSTCHIEGDDLHIQRNVQKLKDTVKKLGESGEIKAIGELDLLFMSLRNACI
proliferation of BaF3/CRF2-4/zcytor11 cells (Alamar Blue), fold over background with 100 pg/ml IL-TIF alone [2]: 13 fold over background
